Data: the supplement of paper PMC12764529
± gives the half width of the 95% confidence interval.

Experiment: folding stability dG unfold from trypsin proteolysis; higher = more stable
Procedure, shortened: (§1)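 Designed mini-proteins (under 80 residues, no cysteine) in a PA-tagged cDNA display construct were digested with trypsin and chymotrypsin. Each protease was used at 11 concentrations (threefold dilutions) plus a no-protease condition, followed by sequencing. K50 was inferred by Bayesian fitting of sequencing counts, and unfolding free energy was derived against a sequence-predicted unfolded-state K50 and a shared folded-state K50, per protease or combined. Only designs with AlphaFold2 dimer inter-PAE above 15 were kept.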

| Sequence | folding stability dG unfold |
| --- | --- |
| SAGGSAGGSAGGEYEIVKIEKVKNENGELYYKMIIKDKKTNKEIEIYMSLEELKKLKPKSAGGSAGGSAGGS [r10_326_TrROS_Hall] | 2.05 ± 0.047 kcal/mol |
| SAGGMTIVEVEYTAYDLNSNKSVVVKAYKDPSTGKMTITSSDGVEGEFDPVTKTISLPRGSKSVTLGSAGGS [r16_743_JUSTAS] | 0.266 ± 0.074 kcal/mol |
| SAVFIEVERDPGDGAYEVTIHYLIPLRPYKDPDGKQKPPVYFMIEITIRFSPNGQIRDLDIDIFPFDAPSAG [r14_246_TrROS] | 3.53 ± 0.13 kcal/mol |
| SAGGFEITEEREAVKTSPPEGPLRVEERLVIEVKSEDPEKALEEAQKETGLPVEVEVDPETGSVTITVRSAG [r5_907_JUSTAS] | -0.523 ± 0.56 kcal/mol |
| SAGGSAGGSAGEVVVEEKEDPSGVLTRTETYPDSVVVTEYKIAPDGKTTEPKPTILPKSESAGGSAGGSAGG [r17_72_JUSTAS] | -0.494 ± 0.1 kcal/mol |
| SAGGMEYDPETKTFHLHVPGGNLPELREAIENAPDRLVTIEVEDPLTDKPRLFTLPAEEARKFLEAGSAGGS [r16_797_TrMRF] | -0.182 ± 0.12 kcal/mol |
| SAGGSAGGSAGIRIKAFPGWKIVDIEPNPPGTIIIRYPNWVFQIRIRPNGEIEIRIVPLDSAGGSAGGSAGG [r11_612_TrROS] | 3.09 ± 0.093 kcal/mol |
| SMPLKVTVEVYEPGGNPLGSKTYEVEPGETLTFTFPRPVKGRVTITDPNADNPQTVTGDPATGTLTFPLVSA [r9_272_JUSTAS] | 0.587 ± 0.056 kcal/mol |
| SAGGSAGGSAGGPPPGQKVTMWVIRIEIKIKLERTPDGKLKLKIEIKISIVFITIYAPDSAGGSAGGSAGGS [r10_297_TrROS] | 3.45 ± 0.13 kcal/mol |
| SAGSSLPPSLSKEEIVAALKSQGYTSVKEEKLPDPNKSRMVFTHPNSVVTVEFFPNSVTVTTVPLSVPSSAG [r5_899_JUSTAS] | 0.0126 ± 0.28 kcal/mol |
| SAGGSAGGMEVVERVVKLPDGTELRITIERDPEKDTAKVTITDPTTSETRTLDVTSEEEALELLSAGGSAGG [r6_465_JUSTAS] | 2.31 ± 0.068 kcal/mol |
| SAGGSAGGSAGGKAKIEMESETIPFKNDDGEKYYIQIMRFEVEVGGKKVTATAISIMPLDSAGGSAGGSAGG [r7_248_TrROS] | 2.22 ± 0.22 kcal/mol |
| SAGMIEIKSEDGSTFRIEFDKETGEVKVEYDKNTGVVKVTLPDGKEVEIEIEGMSLEEVLKKLEELLKKSAG [r5_447_TrROS_Hall] | 2.01 ± 0.19 kcal/mol |
| SAGGSAGGDTVVIEVDMSEEEALALARALADAGKTVEIVVRDKDGRTRKITITVPPEELELPEESAGGSAGG [r6_62_TrROS_Hall] | 1.74 ± 0.019 kcal/mol |
| SAGGSAGGSAPPVVRVTVPLPDGSVLEVEYFPDTGLVRVTLVDADGTPTTVTLPAAEVLALFSAGGSAGGSA [r18_219_TrMRF] | 2.04 ± 0.042 kcal/mol |
| SAGGSAGGSAGGSGGSARIEVERLPDGLVLLRIYDPETGEEIEIPMPPDLARSFVFLNGSAGGSAGGSAGGS [r4_494_TrMRF] | 0.471 ± 0.026 kcal/mol |
| SGSSMGPPDVKERLIDIPSSELSPEVLEEIIEEAIKEGYSVVTINIPEGKYITIELKDGKVTKITEKSLESA [r9_905_JUSTAS] | 1.84 ± 0.035 kcal/mol |
| SAGGLAEEIVEELKERFPGMDVDIDVKEEEDPNNGWVKITIMVRVRNPDDNKPRHEIQLDIEIPVDDSAGGS [r8_207_TrROS] | 1.69 ± 0.056 kcal/mol |
| SSLENLEPVSYDVTVEEGPTSPSGVTYTRITITEPGGSTATVTVTPESLTLDYSVRDKARVEALVRELLESA [r9_662_JUSTAS] | 0.957 ± 0.019 kcal/mol |
| SAGGSAGGTPKLAETRKNGKKVLAPVEVDPETGVITVTPPDGTTEVVPASRPPPFIEEDPSLGSSAGGSAGG [r6_174_JUSTAS] | -0.252 ± 0.042 kcal/mol |
| SAMKFKITEVKIISVEKKKDGKKTIVIEMKVEKGEEKITIEFDKNGKIKKVSVEKLPDGKTVRVTIEIDSAG [r14_189_TrROS_Hall] | 1.49 ± 0.28 kcal/mol |

| Sequence | folding stability dG unfold |
| --- | --- |
| SMVFVEIFYDPIKKKKYIKIVIFLPPNDPEKIKELAEKIKKEIEKFFEELGLKVDKIEVFVFTFPPDFPLSA [r9_117_TrMRF] | 3.38 ± 0.23 kcal/mol |
| SAGGSAGGSLVIPLPNGGRIEVLEVGEDYVLVRLVDPMPGTNKPRVSEIRLKLPPLKPPPPDKSAGGSAGGS [r12_959_TrMRF] | 2.36 ± 0.073 kcal/mol |
| SAGGSAGGSAGMTVEDLEFDIPFESEEEAIEYLKKKLPKDYTIKPIGFEPENGKLKVKVTKKSAGGSAGGSA [r18_429_JUSTAS] | 0.485 ± 0.19 kcal/mol |
| SAGGGVMIAIKKIDPKNGKLEIEIWMPEGFEDPDQRKEMLEMADSLADRLQELHGIPVKVTIHPFPNSAGGS [r16_304_TrROS] | 2.31 ± 0.083 kcal/mol |
| SAGGSAGGSAPATITSIEVEERTGPDGRTYRVLRVRLADTGEEVEIVVPGMSLEEVLAALASSAGGSAGGSA [r18_345_TrROS_Hall] | 2.86 ± 0.031 kcal/mol |
| SAGGSAGGSAMTRDVTIKVPPGVTPEEVFEKLKKENPNVTSYTTTTLPDGTITVTITIEDSSAGGSAGGSAG [r3_371_JUSTAS] | 3.94 ± 0.23 kcal/mol |
| SAGGSKIEVKIEEENGTLTITVTVYDENGEQIAEITVTITLPAPKPPEKELVKAESPEEKEEALKQSAGGSA [r2_332_TrROS_Hall] | 2.25 ± 0.12 kcal/mol |
| SAGGSAGGSAGGSMVKILIEKENELYEIYVPKDEIPLDELVKKAKELFPDIVKIEVFDDSAGGSAGGSAGGS [r4_235_TrMRF] | 0.802 ± 0.039 kcal/mol |
| SAGGSAGGSGIKIIMEFIFPDDGYIFKIEIDIKPNPENGEPVIEMKIEMYPIDPGQPPDLKDLSAGGSAGGS [r12_700_TrROS] | 2.48 ± 0.11 kcal/mol |
| SAGRIRKAIREAFGMDITSIDIDVKENPNGSKKVEIDIHMNNPSQRRRMADAIIEELGYPIKEIEITPMSAG [r5_542_TrROS] | 0.748 ± 0.24 kcal/mol |
| SAGGSAGGSAGGMPIKVEEYELPNGEKILKEISPEGVVKVYKVDPVNGKKEVIEVIPINKSAGGSAGGSAGG [r7_898_JUSTAS] | 0.446 ± 0.094 kcal/mol |
| SAGGEVKITVEKKGDGTVTVTITVKAKSLEDLLKALESLPGVEITKVEIEKDKETNEYTIRVTIKVKPSAGG [r13_796_TrROS_Hall] | 2.67 ± 0.068 kcal/mol |
| SAGGSAGGSAKKKVIVIELPEDMTLEEALALAKALAPPGAEIVIRRDGKLYVIKIEDPEKLSAGGSAGGSAG [r3_50_TrROS_Hall] | 2.24 ± 0.11 kcal/mol |
| SAGGMSPELAADPNVKRVLRFPEPGVFLAYYPEKGLLLLTPPDGKVLLIEAKPEEAEKLVESGLKPESAGGS [r16_745_TrMRF] | 0.028 ± 0.12 kcal/mol |
| SKVTIYFPNMPPEEIIDAIRKNPGKPVEIWMMPNNPDRFKNWLQDAKIEVEPQPNPDGQPWVKMEIEVPDSA [r9_1138_TrROS] | 0.571 ± 0.035 kcal/mol |
| SAGGMKKYLLTLNVTLERPDSEESITLTKEVDSLEEAEKLKEEIEKKLKEEYPGRISFDVTIEEIEESAGGS [r16_475_JUSTAS] | 3.72 ± 0.1 kcal/mol |
| SAGGSAGGSAGSLTLVSTSSDETEEPVVRYREVYAGPVPVRVTAEESLENPGNPRLRVVLSAGGSAGGSAGG [r11_618_JUSTAS] | -0.53 ± 0.22 kcal/mol |
| SAGGSAGGSAGGSMKTVELSSEEEAKKIVEEAKKKGIPLTLVLTDPKTGNPKTFEFPLASAGGSAGGSAGGS [r4_188_JUSTAS] | -0.213 ± 0.22 kcal/mol |
| SAGMQLLPSATVTLTNPKTGETTTVSVQALRDELAARRGTTDPAAITEADIEAWAKEQGYDPITFTLPSAGG [r19_67_JUSTAS] | 2.96 ± 0.069 kcal/mol |
| SAGGSAGGSAGGSMPEGTVLSVDPSTGLKVVYFPGENKLVFEEISPSNELVKRSEFPLSSAGGSAGGSAGGS [r4_192_JUSTAS] | -0.116 ± 0.14 kcal/mol |
| SAGGSAGGSAGGSMKVILDKKNNELYILLKDENGKLLLAKITLLPNGEIKIEVYDLKDLSAGGSAGGSAGGS [r4_434_TrROS_Hall] | 2.27 ± 0.066 kcal/mol |

Experiment: folding stability dG unfold from chymotrypsin proteolysis; higher = more stable
Procedure, shortened: as §1

| Sequence | folding stability dG unfold |
| --- | --- |
| SAGGSAGGSAGGEYEIVKIEKVKNENGELYYKMIIKDKKTNKEIEIYMSLEELKKLKPKSAGGSAGGSAGGS [r10_326_TrROS_Hall] | 3.85 ± 0.16 kcal/mol |
| SAGGMTIVEVEYTAYDLNSNKSVVVKAYKDPSTGKMTITSSDGVEGEFDPVTKTISLPRGSKSVTLGSAGGS [r16_743_JUSTAS] | 0.623 ± 0.11 kcal/mol |
| SAVFIEVERDPGDGAYEVTIHYLIPLRPYKDPDGKQKPPVYFMIEITIRFSPNGQIRDLDIDIFPFDAPSAG [r14_246_TrROS] | 4.41 ± 0.15 kcal/mol |
| SAGGFEITEEREAVKTSPPEGPLRVEERLVIEVKSEDPEKALEEAQKETGLPVEVEVDPETGSVTITVRSAG [r5_907_JUSTAS] | 0.766 ± 0.11 kcal/mol |
| SAGGSAGGSAGEVVVEEKEDPSGVLTRTETYPDSVVVTEYKIAPDGKTTEPKPTILPKSESAGGSAGGSAGG [r17_72_JUSTAS] | -0.583 ± 0.22 kcal/mol |
| SAGGMEYDPETKTFHLHVPGGNLPELREAIENAPDRLVTIEVEDPLTDKPRLFTLPAEEARKFLEAGSAGGS [r16_797_TrMRF] | -0.455 ± 0.25 kcal/mol |
| SAGGSAGGSAGIRIKAFPGWKIVDIEPNPPGTIIIRYPNWVFQIRIRPNGEIEIRIVPLDSAGGSAGGSAGG [r11_612_TrROS] | 3.64 ± 0.055 kcal/mol |
| SMPLKVTVEVYEPGGNPLGSKTYEVEPGETLTFTFPRPVKGRVTITDPNADNPQTVTGDPATGTLTFPLVSA [r9_272_JUSTAS] | 0.909 ± 0.086 kcal/mol |
| SAGGSAGGSAGGPPPGQKVTMWVIRIEIKIKLERTPDGKLKLKIEIKISIVFITIYAPDSAGGSAGGSAGGS [r10_297_TrROS] | 4.87 ± 0.19 kcal/mol |
| SAGSSLPPSLSKEEIVAALKSQGYTSVKEEKLPDPNKSRMVFTHPNSVVTVEFFPNSVTVTTVPLSVPSSAG [r5_899_JUSTAS] | 1.32 ± 0.16 kcal/mol |
| SAGGSAGGMEVVERVVKLPDGTELRITIERDPEKDTAKVTITDPTTSETRTLDVTSEEEALELLSAGGSAGG [r6_465_JUSTAS] | 1.56 ± 0.032 kcal/mol |
| SAGGSAGGSAGGKAKIEMESETIPFKNDDGEKYYIQIMRFEVEVGGKKVTATAISIMPLDSAGGSAGGSAGG [r7_248_TrROS] | 3.53 ± 0.16 kcal/mol |
| SAGMIEIKSEDGSTFRIEFDKETGEVKVEYDKNTGVVKVTLPDGKEVEIEIEGMSLEEVLKKLEELLKKSAG [r5_447_TrROS_Hall] | 1.78 ± 0.13 kcal/mol |
| SAGGSAGGDTVVIEVDMSEEEALALARALADAGKTVEIVVRDKDGRTRKITITVPPEELELPEESAGGSAGG [r6_62_TrROS_Hall] | 2.11 ± 0.029 kcal/mol |
| SAGGSAGGSAPPVVRVTVPLPDGSVLEVEYFPDTGLVRVTLVDADGTPTTVTLPAAEVLALFSAGGSAGGSA [r18_219_TrMRF] | 3.026 ± 0.019 kcal/mol |
| SAGGSAGGSAGGSGGSARIEVERLPDGLVLLRIYDPETGEEIEIPMPPDLARSFVFLNGSAGGSAGGSAGGS [r4_494_TrMRF] | 1.51 ± 0.085 kcal/mol |
| SGSSMGPPDVKERLIDIPSSELSPEVLEEIIEEAIKEGYSVVTINIPEGKYITIELKDGKVTKITEKSLESA [r9_905_JUSTAS] | 1.75 ± 0.047 kcal/mol |
| SAGGLAEEIVEELKERFPGMDVDIDVKEEEDPNNGWVKITIMVRVRNPDDNKPRHEIQLDIEIPVDDSAGGS [r8_207_TrROS] | 1.89 ± 0.036 kcal/mol |
| SSLENLEPVSYDVTVEEGPTSPSGVTYTRITITEPGGSTATVTVTPESLTLDYSVRDKARVEALVRELLESA [r9_662_JUSTAS] | 0.989 ± 0.11 kcal/mol |
| SAGGSAGGTPKLAETRKNGKKVLAPVEVDPETGVITVTPPDGTTEVVPASRPPPFIEEDPSLGSSAGGSAGG [r6_174_JUSTAS] | 1.44 ± 0.037 kcal/mol |
| SAMKFKITEVKIISVEKKKDGKKTIVIEMKVEKGEEKITIEFDKNGKIKKVSVEKLPDGKTVRVTIEIDSAG [r14_189_TrROS_Hall] | 2.95 ± 0.087 kcal/mol |
